Data set [1] addresses T1, NS3a/asunaprevir complex (Hepatitis C virus genotype 1a, UniProt P27958, C1073S/C1078L/C1185S/I1043Q/I1044E/I1098T/L1039E/L1040E/L1047Q/L1179I/N1200S/P1112Q/Q1106K/T1100M/T1173A).
T1 construct: made in house; host or cells: E. coli BL21 (DE3), pDW363 with BirA
In words: Yeast surface display binding and titration. Details: key to relative binding: +: Relative binding of different NS3a/inhibitor complexes is given for conditions where binding was too weak to achieve full titration curves on yeast, indicating binding in the low-to-mid micromolar-range, or weaker.; ++: Relative binding of different NS3a/inhibitor complexes is given for conditions where binding was too weak to achieve full titration curves on yeast, indicating binding in the low-to-mid micromolar-range, or weaker.; +++: Relative binding of different NS3a/inhibitor complexes is given for conditions where binding was too weak to achieve full titration curves on yeast, indicating binding in the low-to-mid micromolar-range, or weaker. Conditions: for relative binding / Kd: yeast-displayed design, NS3a/asunaprevir complex; for Kd: apparent, read-out: KD (nM) ± standard deviation. The text has this:
(§1) ; these sorts are denoted as “avid” below. […] See FIG. 30a for yeast gating strategies.
(§2) […]. Curves were fit using Graphpad Prism 5 to a one-site specific binding model with Hill coefficient.

Data set [2] has as its target T2, NS3a/danoprevir complex (Hepatitis C virus genotype 1a, UniProt P27958, C1073S/C1078L/C1185S/I1043Q/I1044E/I1098T/L1039E/L1040E/L1047Q/L1179I/N1200S/P1112Q/Q1106K/T1100M/T1173A).
T2 construct: made in house; host or cells: E. coli BL21 (DE3), pDW363 with BirA
In words: Yeast surface display binding and titration. To be noted: for Fold drug specificity: grazoprevir/NS3a over danoprevir/NS3a; for relative binding / Kd: yeast-displayed design, NS3a/danoprevir complex; for Kd: apparent, read-out: KD (nM) ± standard deviation; for binding to NS3a/danoprevir complex: yeast surface display. More on the design: key to relative binding: +: Relative binding of different NS3a/inhibitor complexes is given for conditions where binding was too weak to achieve full titration curves on yeast, indicating binding in the low-to-mid micromolar-range, or weaker.; ++: Relative binding of different NS3a/inhibitor complexes is given for conditions where binding was too weak to achieve full titration curves on yeast, indicating binding in the low-to-mid micromolar-range, or weaker.; +++: Relative binding of different NS3a/inhibitor complexes is given for conditions where binding was too weak to achieve full titration curves on yeast, indicating binding in the low-to-mid micromolar-range, or weaker.
Source text: as §1, §2

Data set [3] deals with T3, NS3a/grazoprevir complex (Hepatitis C virus genotype 1a, UniProt P27958, C1073S/C1078L/C1185S/I1043Q/I1044E/I1098T/L1039E/L1040E/L1047Q/L1179I/N1200S/P1112Q/Q1106K/T1100M/T1173A).
T3 construct: made in house; host or cells: E. coli BL21 (DE3), pDW363 with BirA
In words: Yeast surface display binding and titration. Details: key to relative binding: +: Relative binding of different NS3a/inhibitor complexes is given for conditions where binding was too weak to achieve full titration curves on yeast, indicating binding in the low-to-mid micromolar-range, or weaker.; ++: Relative binding of different NS3a/inhibitor complexes is given for conditions where binding was too weak to achieve full titration curves on yeast, indicating binding in the low-to-mid micromolar-range, or weaker.; +++: Relative binding of different NS3a/inhibitor complexes is given for conditions where binding was too weak to achieve full titration curves on yeast, indicating binding in the low-to-mid micromolar-range, or weaker. To be noted: for relative binding / Kd: yeast-displayed design, NS3a/grazoprevir complex; for Kd: apparent, read-out: KD (nM) ± standard deviation; for Fold drug specificity: danoprevir/NS3a over grazoprevir/NS3a.
Source text: as §1, §2

In data set [4] the target is T4, apo NS3a (Hepatitis C virus genotype 1a, UniProt P27958, C1073S/C1078L/C1185S/I1043Q/I1044E/I1098T/L1039E/L1040E/L1047Q/L1179I/N1200S/P1112Q/Q1106K/T1100M/T1173A).
T4 construct: made in house; host or cells: E. coli BL21 (DE3), pDW363 with BirA
In words: Yeast surface display binding.
Source text: as §1, §2

Data set [5] concerns PI3K-Akt signaling in COS-7 cells. In words: AKT Western blots. The format is cell-based. To be noted: DNCR2 fused to inter-SH2 domain of p85, danoprevir. The protocol:
COS-7 cells (ATCC), were plated in 24-well plates at 2×10^5 cells/mL (0.5 mL volume). […] One day after transfection, cells were washed once with DPBS, and media was replaced with serum-free DMEM. After serum-starving for 22 hours, cells were exposed to a 15-min drug treatment using 12, 3-fold dilutions of danoprevir from 5 μM to 0 μM, in triplicate. After drug treatment, cells were washed once in DPBS, then lysed in 50 μL modified RIPA buffer (50 mM Tris-HCl, pH 7.8, 1% v/v IGEPAL CA-630, 150 mM NaCl, 1 mM EDTA, 1× Pierce Protease Inhibitor Tablet) for 30 minutes on ice. Cell debris was cleared by centrifugation at […] for 10 min at 4° C. Lysate was mixed with protein loading dye and denatured at 95° C. for 7 minutes then run on an SDS-PAGE gel (Criterion, Bio-Rad) and transferred to nitrocellulose. Blocking and primary antibody incubations were done in a 1:1 mix of TBS plus 0.1% v/v Tween-20 (TBST) and blocking buffer (Odyssey). Primary antibodies used were pSER473 AKT (1:2000, Cell Signaling Technologies #4060), and pan-AKT (1:2000, Cell Signaling Technologies #2920). […]

The conditions of data set [6]: 100 μM free drug unable to disrupt DNCR2/danoprevir/NS3a complex on yeast.
Data set [7] deals with NS3a in NIH3T3 cells. In words: Confocal microscopy for colocalization analysis (fixed cells). It counts as cell-based. Conditions: 5 μM drug, 15 min.
The mark [8] stands for this setting: grazoprevir/NS3a over asunaprevir/NS3a.
Setting [9] is: danoprevir/NS3a over asunaprevir/NS3a.

Several values for one entry are separate records, joined by “and”; a condition that tells them apart may be missing. Equal values may be shown once.

B1: G3: computational design on DHR18 scaffold binding grazoprevir/NS3a complex, SEQ ID NO: 12 (protein)
chain: DIEKLCKKAEEEAKEAQEKADELRQRHPDSQAAEDAEDLANEAEAAVLAACSLAQEHPNADIAKLCIKAASEAAEAASKAAELAQRHPDSQAARDAIKLASQAARAVILAIMLAAENPNADIAKLCIKAASEAAEAASKAAELAQRHPDSQAARDAIKLASQAAEAVERAIWLAAENPNADIAKKCIKAASEAAEEASKAAEEAQRHPDSQKARDEIKEASQKAEEVKERCKS
With B1, the Fold drug specificity result in data set [1] (setting [8]) was “modest”; in data set [2], “high”. Moreover, the relative binding result in data set [1] was “+”; in data set [2], “no binding”; in data set [3], “++”. The “binding to NS3a/grazoprevir complex” value in data set [3] (yeast surface display) is listed as “modest, grazoprevir-dependent binding”. Also, in data set [3] (yeast surface display), the “specificity for binding grazoprevir/NS3a over NS3a with danoprevir or asunaprevir, or apo NS3a” value is recorded as “high specificity”.

B2: GNCR1: grazoprevir/NS3a complex reader 1, 4 mutations from G3, SEQ ID NO: 11 (protein)
chain: DIEKLCKKAEEEAKEAQEKADELRQRHPDSQAAEDAEDLANLAVAAVLTACLLAQEHPNADIAKLCIKAASEAAEAASKAAELAQRHPDSQAARDAIKLASQAARAVILAIMLAAENPNADIAKLCIKAASEAAEAASKAAELAQRHPDSQAARDAIKLASQAAEAVERAIWLAAENPNADIAKKCIKAASEAAEEASKAAEEAQRHPDSQKARDEIKEASQKAEEVKERCKS
Consider B2, for which the Kd in data set [1] was over 10000 nM; in data set [2] it was over 10000 nM; in data set [3], 140 nM and < 200 nM. Besides, the Fold drug specificity in data set [1] (setting [8]) and in data set [2] was over 71 fold each time. Moreover, in data set [1] (yeast surface display), the “binding to asunaprevir-bound NS3a” value is “little-to-no affinity”. Besides, the “binding to NS3a/danoprevir complex” value in data set [2] is “little-to-no affinity”. The “specificity for binding grazoprevir/NS3a over NS3a with danoprevir or asunaprevir, or apo NS3a” value in data set [3] (yeast surface display) is reported as “high specificity”. For the same molecule, the “binding to apo NS3a” value in data set [4] was “little-to-no affinity”.

B3: D5: computational design on DHR79 scaffold binding danoprevir/NS3a complex, SEQ ID NO: 10 (protein)
chain: SSDEEEARELIERAKEAAERAQEAAERTGDPRVRELARELKRLAQEAAEEVKRDPSSSDVNEALKLIVEAIEAAVDALEAAERTGDPEVRELARELVRLAVEAAEEVQRNPSSSDVNEALLTIVIAIEAAVNALEAAERTGDPEVRELARELVRLAVEAAEEVQRNPSSREVNIALWKIVLAIQEAVESLREAEESGDPEKREKARERVREAVERAEEVQRDPSGWLNH
As for B3, the Fold drug specificity result in data set [1] (setting [9]) is given as “modest”; in data set [3] it was “none”. In addition, the relative binding result is “+” in data set [1], “++” in data set [2] and “+++” in data set [3]. Moreover, the “binding to NS3a/danoprevir complex” value in data set [2] is recorded as “modest, drug-dependent binding”.

B4: DNCR2: danoprevir/NS3a complex reader, final variant with 14 mutations from D5, SEQ ID NO: 8 (protein)
chain: SSDEEEARELIERAKEAAERAQEAAERTGDPRVRELARELKRLAQEAAEEVKRDPSSSDVNEALKLIVEAIEAAVDALEAAERTGDPEVRELARELVRLAVEAAEEVQRNPSSSDVNEALHSIVYAIEAAIFALEAAERTGDPEVRELARELVRLAVEAAEEVQRNPSSRNVEHALMRIVLAIYLAEENLREAEESGDPEKREKARERVREAVERAEEVQRDPSGWLNH
In the case of B4, the Kd in data set [1] was determined as 770 ± 50 nM; in data set [2], 0.036 ± 0.0002 nM; in data set [3] it was 2000 ± 100 nM. The Fold drug specificity in data set [1] (setting [9]) is on record as 21,000 fold; in data set [3], 56,000 fold. In addition, the “specificity over NS3a bound to the drugs grazoprevir or asunaprevir” value in data set [2] is > 20,000 fold. Further, the “binding to apo NS3a” value in data set [4] is given as “no detectable binding”. Further, the PI3K-Akt signaling activation entry in data set [5] is “capable of activating PI3K-Akt signaling”. In addition, in data set [6], the “binding to danoprevir alone” value was “does not appear to bind substantially to danoprevir alone”.

B5: ANR—BFP-CAAX: plasma membrane-targeted ANR-BFP fusion (protein)
chain: MGELDELVYLLDGPGYDPIHSDGSGTGSGTGSGTGTTSGTGTGGSTGGELDELVYLLDGPGYDPIHSDGSGTGSGTGSGTGTTSGTGTGGSTGEQKLISEEDLGSGSSELIKENMHMKLYMEGTVDNHHFKCTSEGEGKPYEGTQTMRIKVVEGGPLPFAFDILATSFLYGSKTFINHTQGIPDFFKQSFPEGFTWERVTTYEDGGVLTATQDTSLQDGCLIYNVKIRGVNFTSNGPVMQKKTLGWEAFTETLYPADGGLEGRNDMALKLVGGSHLIANIKTTYRSKKPAKNLKMPGVYYVDYRLERIKEANNETYVEQHEVAVARYCDLPSKLGHKLNRKHKEKMSKDGKKKKKKSKTKCVIM
With B5, in data set [7], the “Colocalization of NS3a-mCherry with ANR-BFP-CAAX or NLS-DNCR2-EGFP” value is reported as “pre-localized NS3a-mCherry™ to the plasma membrane”.

(Values after US20220025003A1, “REAGENTS AND METHODS FOR CONTROLLING PROTEIN FUNCTION AND INTERACTION” (University of Washington, priority 2018, published 2022).)
